The values that follow are results of earlier work, collected in PMC7143316.

The target in data set [1] is Kv1.2 (Homo sapiens) (UniProt P16389).
In data set [2] the target is Kv1.3 (Homo sapiens) (UniProt P22001).
The target of data set [3] is Kv1.1 (Homo sapiens) (UniProt Q09470).
Chain of UniProt Q09470 (Q09470 whole entry): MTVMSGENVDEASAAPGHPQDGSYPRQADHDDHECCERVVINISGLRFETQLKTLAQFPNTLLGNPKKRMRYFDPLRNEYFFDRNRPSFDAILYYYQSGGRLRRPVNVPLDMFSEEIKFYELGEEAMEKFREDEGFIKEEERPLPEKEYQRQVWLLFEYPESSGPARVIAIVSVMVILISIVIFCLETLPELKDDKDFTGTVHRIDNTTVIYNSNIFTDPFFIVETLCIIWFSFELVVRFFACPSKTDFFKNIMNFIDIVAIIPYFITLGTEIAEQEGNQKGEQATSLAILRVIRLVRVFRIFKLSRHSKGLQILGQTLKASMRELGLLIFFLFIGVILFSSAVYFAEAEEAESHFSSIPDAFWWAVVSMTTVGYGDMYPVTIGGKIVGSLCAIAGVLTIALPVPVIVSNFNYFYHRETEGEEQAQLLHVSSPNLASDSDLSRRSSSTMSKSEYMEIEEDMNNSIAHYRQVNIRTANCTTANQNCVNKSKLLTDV

Chain of UniProt P16389 (P16389 whole entry): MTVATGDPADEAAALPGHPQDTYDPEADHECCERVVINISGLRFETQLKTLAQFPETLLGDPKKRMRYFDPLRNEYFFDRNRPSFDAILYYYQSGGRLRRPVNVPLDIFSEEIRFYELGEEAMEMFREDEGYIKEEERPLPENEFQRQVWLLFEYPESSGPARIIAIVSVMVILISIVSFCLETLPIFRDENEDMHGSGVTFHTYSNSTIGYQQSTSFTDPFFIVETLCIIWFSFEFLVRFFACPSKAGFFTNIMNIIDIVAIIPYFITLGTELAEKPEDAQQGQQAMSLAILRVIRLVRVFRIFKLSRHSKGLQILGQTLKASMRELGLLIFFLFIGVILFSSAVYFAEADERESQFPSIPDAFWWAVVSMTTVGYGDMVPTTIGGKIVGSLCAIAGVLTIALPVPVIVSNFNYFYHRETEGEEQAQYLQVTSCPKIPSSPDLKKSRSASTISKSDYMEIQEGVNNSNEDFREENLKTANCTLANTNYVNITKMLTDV
Chain of UniProt P22001 (P22001 whole entry): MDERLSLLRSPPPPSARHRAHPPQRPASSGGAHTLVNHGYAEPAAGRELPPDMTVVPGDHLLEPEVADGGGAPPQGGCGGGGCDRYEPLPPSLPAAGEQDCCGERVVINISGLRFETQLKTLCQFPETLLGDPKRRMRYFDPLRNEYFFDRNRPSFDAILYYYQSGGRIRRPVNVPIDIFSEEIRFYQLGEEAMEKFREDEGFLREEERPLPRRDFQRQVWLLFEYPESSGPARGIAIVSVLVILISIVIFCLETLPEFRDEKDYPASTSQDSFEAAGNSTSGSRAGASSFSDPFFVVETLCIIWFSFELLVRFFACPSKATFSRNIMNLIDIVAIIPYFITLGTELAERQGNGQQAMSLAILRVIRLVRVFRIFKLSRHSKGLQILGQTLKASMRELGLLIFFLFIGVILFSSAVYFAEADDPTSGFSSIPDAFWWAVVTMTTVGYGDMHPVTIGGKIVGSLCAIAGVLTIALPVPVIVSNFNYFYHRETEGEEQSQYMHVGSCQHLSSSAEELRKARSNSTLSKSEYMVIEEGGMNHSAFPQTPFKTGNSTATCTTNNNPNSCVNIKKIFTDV

Broadly, the Kd is the concentration at which binding is half-saturated. For the substance BgK (from UniProt P29186), the Kd in data set [1] was 15 nM; in data set [2] it was 10 nM; in data set [3] it was 6 nM.
